Reference: the supplement of paper PMC10567573

B1: STEAP1 (parent)
chain: LWKMKPRRNLEEDDYLHKDTGETS
B2: TMEM106C (parent)
chain: SEQLVNFTGKAEMGGPFSYVYFFC

Variants of: B1
Assay: protein stability index of a GFP-peptide fusion (GPS, HEK-293T) (PSI 1-6); higher = more stable
Details: c terminus: a fixed tail appended
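Also: lentivirally expressed fusions sorted by FACS into six bins by GFP to DsRed ratio, PSI derived from sequencing read proportions per bin multiplied by bin number.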

Protein stability index: each site, then its substitutions
D13: Y 4.17; K 4.43; V 3.87; Q 4.63; T 4.19; N 4.35; L 3.88; M 3.8; I 3.84; W 3.21; C 3.65; A 3.94; H 3.88; S 3.85; P 4.45; G 4.61
S24: R 3.97; D 4.65; G 4.46; I 3.96; F 4.22; Y 4.11; P 4.3; V 4.38; M 4.16; W 3.5; L 4.1; E 4.52; T 4.6
L1: V 4.69; C 4.43; K 4.57; D 5.23; P 5.08; A 5.06; N 4.84; F 4.31; W 4.18; T 5; Y 4.26; S 4.78; Q 5.18; G 4.75; I 3.97
E11: I 3.82; N 3.83; F 3.61; G 3.93; S 4.06; A 3.89; L 3.88; Q 4.12; K 4.58; C 3.79; M 3.96; Y 3.09; H 4.26; T 4.15; D 4; P 4.2; R 4.04
G21: N 4.36; W 3.15; C 4.21; E 4.65; Y 4.08; M 3.93; R 3.89; P 4.77; T 4.49; S 4.59; Q 4.33
R8: Q 4.67; A 4.61; T 4.47; M 4.6; S 4.43; G 4.07; I 4.22; L 4.03; C 3.79; K 4.49; F 3.93; D 4.74; N 4.53
K18: M 4.29; C 4.28; V 4.21; E 4.87; R 4.75; W 3.81; T 4.6; Y 4.03; Q 4.46; P 4.47; H 4.62; I 3.58
M4: D 5.16; W 4.14; H 4.81; N 4.69; E 4.94; P 4.41; L 4.55; Q 4.95; K 4.19; G 4.86; T 4.62; V 4.41; R 4.47; A 4.43
T20: W 3.85; Q 4.71; H 4.26; G 4.58; K 3.6; N 4.46; V 4.05; A 4.39; Y 3.74; C 4.31; D 5.09; P 4.51; L 4.13; R 4.44; I 4.12
K3: R 4.28; D 5.06; Y 3.81; W 3.27; V 3.67; G 4.22; Q 4.88; I 2.86; E 5.19; L 3.81; C 3.49; A 4.19; M 4.11; N 4.8
P6: N 4.52; S 4.57; V 3.96; A 3.94; H 4; Q 3.94; E 5.13; Y 3.96; K 4.1; D 4.41; W 3.16; C 3.52; F 3.62
D19: E 4.41; A 3.94; T 3.83; M 3.81; L 3.33; Y 3.81; P 4.36; C 3.8; I 3.46; Q 4.1; N 4.39; G 4.45; F 3; K 4.23
W2: V 4.99; E 5.45; H 4.96; A 5.25; R 4.83; D 5.62; Q 5.31; I 5.05; K 4.78; Y 4.92; P 5.49; M 4.78; T 5.22
H17: S 4.54; C 4.32; T 4.82; D 4.94; Q 4.68; I 4.11; V 4.71; F 4.16; A 4.93; W 3.84; N 4.28
N9: M 4.36; I 4.15; G 4.58; Q 4.41; C 3.81; S 4.56; V 4.18; F 4.06; T 4.49; K 4.44; A 4.41; H 4.47; L 4.15
T23: F 3.92; A 4.63; M 3.99; S 4.77; C 4.05; L 4.12; P 4.92; H 4.4
Y15: W 4.26; F 4.14; I 3.61; R 4.53; G 4.83; C 4.66; H 4.66; M 4.68; P 4.81; L 4.33; E 4.77; A 5.02; S 5.16; D 5.15
R7: H 4.69; G 4.42; I 4.26; L 4.4; D 5.25; F 3.55; M 4.51; K 4.69; P 4.62; C 4.26; A 4.83
E12: F 3.51; G 4.16; R 4.07; S 4.45; Y 3.3; C 3.96; H 3.75; W 3.16; I 3.66; V 4.09; A 4.06; D 4.46; P 4.26
L16: K 4.59; V 4.52; W 4.19; D 4.92; F 4.26; Y 4.14; E 4.79; I 4.23; N 4.97; Q 4.87; A 4.74; C 4.63; T 4.74
L10: M 4.26; I 4.67; C 3.9; D 4.9; Y 4.1; K 4.48; Q 4.72; W 4.41; P 4.86; N 4.4; H 4.22; V 4.34; A 4.86; F 4.24; S 5.12
K5: S 5.01; N 4.32; F 2.77; D 4.8; G 4.5; P 4.91; Y 3.9; L 3.98; C 4.45; V 3.94
D14: I 3.84; T 4.46; R 4.7; H 4.18; C 4.23; S 4.18; G 4.31; P 4.34; F 3.74; Q 4.32; V 4.07; L 3.8; W 3.11
E22: R 3.69; T 3.7; K 3.83; C 4; A 3.92; S 4.08; I 3.73; V 3.86; L 4.13; W 2.56; P 3.98

Variants of: B2
Assay: as above
Details: c terminus: a fixed tail appended

Protein stability index: each site, then its substitutions
S1: I 3.37; E 2.98; K 2.67; N 2.85; H 3.23; M 3.28; G 3.79; D 1.62; Q 2.63; L 3.63; W 2.49; R 3.55; Y 1.72; A 2.51; F 2.65; T 3.09; V 3.6; P 2.9; C 2.6
E2: C 2.18; A 2.44; D 3.75
